Assay results reported in US20230077100A1 (published 2023).

T1: HPV16 E6 peptide on HLA-A*02:01 (human)
T1 peptide: TIHDIILECV

B1: E202 TCR (TCR, V domains shown)
Valpha: AQTVTQSQPEMSVQEAETVTLSCTYDTSESDYYLFWYKQPPSRQMILVIRQEAYKQQNATENRFSVNFQKAAKSFSLKISDSQLGDAAMYFCAYRDSRGSTLGRLYFGRGTQLTVWP
Vbeta: DVKVTQSSRYLVKRTGEKVFLECVQDMDHENMFWYRQDPGLGLRLIYFSYDVKMKEKGDIPEGYSVSREKKERFSLILESASTNQTSMYLCASSLWGRKNTEAFFGQGTRLTVV
B2: E203 TCR (TCR, V domains shown)
Valpha: LAKTTQPISMDSYEGQEVNITCSHNNIATNDYITWYQQFPSQGPRFIIQGYKTKVTNEVASLFIPADRKSSTLSLPRVSLSDTAVYYCLALSMDSSYKLIFGSGTRLLVRP
Vbeta: DAGVIQSPRHEVTEMGQEVTLRCKPISGHDYLFWYRQTMMRGLELLIYFNNNVPIDDSGMPEDRFSAKMPNASFSTLKIQPSEPRDSAVYFCASSLAQRSAPEAFFGQGTRLTVV
B3: E205 TCR (TCR, V domains shown)
Valpha: TQLLEQSPQFLSIQEGENLTVYCNSSSVFSSLQWYRQEPGEGPVLLVTVVTGGEVKKLKRLTFQFGDARKDSSLHITAAQPGDTGLYLCAGVSARLMFGDGTQLVVKP
Vbeta: SAVISQKPSRDICQRGTSLTIQCQVDSQVTMMFWYRQQPGQSLTLIATANQGSEATYESGFVIDKFPISRPNLTFSTLTVSNMSPEDSSIYLCSAVGGPKVPGAEAFFGQGTRLTVV

Tests used:
[1] = target: T1, HPV16 E6 peptide on HLA-A*02:01; assay: peptide titration on T2 cells, E:T 1:1, overnight, intracellular IFN-γ; full-length, on cells
[2] = target: T1, HPV16 E6 peptide on HLA-A*02:01; assay: peptide titration on APCs, E:T 1:1, overnight, intracellular IFN-γ in CD8+ TCR-T cells; full-length, on cells
[3] = target: T1, HPV16 E6 peptide on HLA-A*02:01; assay: peptide titration on APCs, E:T 1:1, overnight, intracellular IFN-γ in CD4+ TCR-T cells; full-length, on cells

| Binder | EC50 of peptide [1] | EC50 of peptide [2] | EC50 of peptide [3] |
| --- | --- | --- | --- |
| B1 | 0.045 µg/mL | – | – |
| B2 | – | 0.00104 µg/mL | 0.0176 µg/mL |
| B3 | – | 0.000917 µg/mL | 0.0104 µg/mL |
